The record followed here is FireProtDB (doi:10.1093/protein/gzw068).

B1: D182F, Q93D82 (parent)
chain: MSTAIVTNVKHFGGMGSALRLSEAGHTVACHDESFKQKDELEAFAETYPQLKPMSEQEPAELIEAVTSAYGQVDVLVSNDIFAPEFQPIDKYAVEDYRGAVEALQIRPFALVNAVASQMKKRKSGHIIFITSATPFGPWKELSTYTSARAGACTLANALSKELGEYNIPVFAIGPNYLHSEDSPYFYPTEPWKTNPEHVAHVKKVTALQRLGTQKELGELVAFLASGSCDYLTGQVFWLAGGFPMIERWPGMPE

The variants in the data set derive from B1. Particulars: Rhizobium radiobacter; pH 7.7; Thermal; CD; Phosphate 5mM; structure 1PWX; whole UniProt chain shown.

MSTAIVTNVKHFGGMGSALRLSEAGHTVACHDESFKQKDELEAFAETYPQLKPMSEQEPAELIEAVTSAYGQVDVLVSNDIFAPEFQPIDKYAVEDYRGAVEALQIRPFALVNAVASQMKKRKSGHIIFITSATPFGPWKELSTYTSARAGACTLANALSKELGEYNIPVFAIGPNYLHSEFSPYFYPTEPWKTNPEHVAHVKKVTALQRLGTQKELGELVAFLASGSCDYLTGQVFWLAGGFPMIERWPGMPE [D182F]: the Tm stood at 63 °C and the “change of melting temperature, mutant - wild type (higher = more stable)” value (shortened to “change of melting temperature, mutant”) was -2 °C.

With MSTAIVTNVKHFGGMGSALRLSEAGHTVACHDESFKDKDELEAFAETYPQLKPMSEQEPAELIEAVTSAYGQVDVLVSNDIFAPEFQPIDKYAVEDYRGAVEALQIRPFALVNAVASQMKKRKSGHIIFITSATPFGPWKELSTYTSARAGACTLANALSKELGEYNIPVFAIGPNYLHSEDSPYFYPTEPWKTNPEHVAHVKKVTALQRLGTQKELGELVAFLASGSCDYLTGQVFWLAGGFPMIERWPGMPE [Q37D], the midpoint of thermal melting (Tm) was 65 °C and the “change of melting temperature, mutant” value is 0 °C.

Turning to MSTAIVTNVKHFGGMGSALRLSEAGHTVACHDESFKQKDELEAFAETYPQLKPMSEQEPAELIEAVTSAYGQVDVLVSNDIFAPEFQPIDKYAVEDYRGAVEALQIRPFALVNAVASQMKKRKSGHIIFITSATPFGPWPELSTYTSARAGACTLANALSKELGEYNIPVFAIGPNYLHSEDSPYFYPTEPWKTNPEHVAHVKKVTALQRLGTQKELGELVAFLASGSCDYLTGQVFWLAGGFPMIERWPGMPE [K140P], the Tm came out at 54.5 °C and the “change of melting temperature, mutant” value is -10.5 °C.

In the case of MSTAIVTNVKHFGGMGSALRLSEAGHTVACHDESFKQKDELEAFAETYPQLKPMSEQEPAELIEAVTSAYGQVDVLVSNDIFAPEFQPIDKYAVEDYRGAVEALQIRPFALVNAVASQMKKRKSGHIIFITSATPFGPWKELSTYTSARAGACTLANALSKELGEYNIPVFAIGPNYLHSEDSPYFYPTEPWKTNPEHVAHVKKVTALQRLGTQKELGELVAFLASGSADYLTGQVFWLAGGFPMIERWPGMPE [C229A], the melting temperature (Tm) is 60.5 °C and the “change of melting temperature, mutant” value is -4.5 °C.

In the case of MSTAIVTNVKHFGGMGSALRLSEAGHTVACHDESFKQKDELEAFAETYPQLKPMSEQEPAELIEAVTSAFGQVDVLVSNDIFAPEFQPIDKYAVEDYRGAVEALQIRPFALVNAVASQMKKRKSGHIIFITSATPFGPWKELSTYTSARAGACTLANALSKELGEYNIPVFAIGPNYLHSEDSPYFYPTEPWKTNPEHVAHVKKVTALQRLGTQKELGELVAFLASGSCDYLTGQVFWLAGGFPMIERWPGMPE [Y70F], the Tm amounted to 65.5 °C and the “change of melting temperature, mutant” value turned out to be 0.5 °C.

Take MSTAIVTNVKHFGGMGSALRLSEAGHTVACHDESFKQKDELEAFAETYPQLKPMSEQEPAELIEAVTSAYGQVDVLVSNDIFAPEFQPIDKYAVEDYRGAVEALQIRPFALVNAVASQMKKRKSGHIIFITSATPFGPWKELSIYTSARAGACTLANALSKELGEYNIPVFAIGPNYLHSEDSPYFYPTEPWKTNPEHVAHVKKVTALQRLGTQKELGELVAFLASGSCDYLTGQVFWLAGGFPMIERWPGMPE [T144I]: the Tm was 57 °C and the “change of melting temperature, mutant” value is -8 °C.

As for MSTAIVMNVKHFGGMGSALRLSEAGHTVACHDESFKQKDELEAFAETYPQLKPMSEQEPAELIEAVTSAYGQVDVLVSNDIFAPEFQPIDKYAVEDYRGAVEALQIRPFALVNAVASQMKKRKSGHIIFITSATPFGPWKELSTYTSARAGACTLANALSKELGEYNIPVFAIGPNYLHSEDSPYFYPTEPWKTNPEHVAHVKKVTALQRLGTQKELGELVAFLASGSCDYLTGQVFWLAGGFPMIERWPGMPE [T7M], the Tm was determined as 65 °C and the “change of melting temperature, mutant” value was 0 °C.

Take MSTAIVTNVKHFGGMGSALRLSEAGHTVACHDESFKQKDELEAFAETYPQLKPMSEQEPAELIEAVTSAYGQVDVLVSNDIFAPEFQPIDKYAVEDYRGAVEALQIRPFALVNAVASQMKKRKSGHIIFITSATPFGPWKELSTYTSARAGACTLANALSKELGPYNIPVFAIGPNYLHSEDSPYFYPTEPWKTNPEHVAHVKKVTALQRLGTQKELGELVAFLASGSCDYLTGQVFWLAGGFPMIERWPGMPE [E165P]: the Tm came out at 57.5 °C and the “change of melting temperature, mutant” value is -7.5 °C.

As to MSTAIVTNVKHFGGMGSALRLSEAGHTVACHDESFKQKDELEAFAETYPQLKPMSEQEPAELIEAVTSAYGQVDVLVSNDIFAPEFQPIDKYAVEHYRGAVEALQIRPFALVNAVASQMKKRKSGHIIFITSATPFGPWKELSTYTSARAGACTLANALSKELGEYNIPVFAIGPNYLHSEDSPYFYPTEPWKTNPEHVAHVKKVTALQRLGTQKELGELVAFLASGSCDYLTGQVFWLAGGFPMIERWPGMPE [D96H], the Tm was 56 °C and the “change of melting temperature, mutant” value is -9 °C.

With MSTAIVTNVKHFGGMGSALRLSEAGHTVACHDESFKQKDELEAFAETYPQLKPMSEQEPAELIEAVTSAYGQVDVLVSNDIFAPEFQPIDKYAVEDYRGAVEALQIRPFALVNAVASQMKKRKSGHIIFITSATPFGPWKELSTYTSARAGACTLANALSKELGEYNIPVFAIGPNYLHSEDSPYFYPTEPWKTNPEYVAHVKKVTALQRLGTQKELGELVAFLASGSCDYLTGQVFWLAGGFPMIERWPGMPE [H198Y], the Tm was found to be 62.5 °C and the “change of melting temperature, mutant” value is -2.5 °C.

As for MSTAIVTNVKHFGGMGSALRLSEAGHTVACHDESFKQKDELEAFAETYPQLKPMSEQEPAELIEAVTSAYGQVDVLVSNDIFAPEFLPIDKYAVEDYRGAVEALQIRPFALVNAVASQMKKRKSGHIIFITSATPFGPWKELSTYTSARAGACTLANALSKELGEYNIPVFAIGPNYLHSEDSPYFYPTEPWKTNPEHVAHVKKVTALQRLGTQKELGELVAFLASGSCDYLTGQVFWLAGGFPMIERWPGMPE [Q87L], the melting temperature (Tm) stood at 62.5 °C and the “change of melting temperature, mutant” value is -2.5 °C.

Turning to MSTAIVTNVKHFGGMGSALRLSEAGHTVACHDESFKQKDELEAFAETYPQLKPMSEQEPAELIEAVTSAYGQVDVLISNDIFAPEFQPIDKYAVEDYRGAVEALQIRPFALVNAVASQMKKRKSGHIIFITSATPFGPWKELSTYTSARAGACTLANALSKELGEYNIPVFAIGPNYLHSEDSPYFYPTEPWKTNPEHVAHVKKVTALQRLGTQKELGELVAFLASGSCDYLTGQVFWLAGGFPMIERWPGMPE [V77I], the Tm amounted to 64 °C and the “change of melting temperature, mutant” value was -1 °C.

For orientation: Tm means the temperature at the midpoint of the melting transition.
